Reference: the supplement of paper PMC9170038

tested on: MS2 coat protein; assay: apparent KD of MS2 coat protein; higher = weaker reporter binding; conditions: Eterna round: R107; input ligand: none
Method in brief: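 Designed RNA switches, transcribed on-chip from Illumina sequencing clusters, were titrated with SNAP-549-labelled MS2 coat protein from 0.7 or 1.5 nM to 3 µM in twofold steps. The solution was 100 mM Tris-HCl pH 7.5, 80 mM KCl, 4 mM MgCl2, with constant ligand or without it. Apparent KD is the median over each design's normalised cluster binding-curve fits.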

Sequence	apparent KD of MS2 coat protein
CGUAUGUAGACGGCCGCCACUGGAACAAGAGGAUCACCCUUGUACAGGGUGGGACUAUCGAGAGUCAGGACCGGGUCUACAUACA [Tryp B Ex t2]	150 nM
AAGAGUUGACAAAAGUCAGCUCAAACCGAAGGAGCGGGAGAAAUCCCAGGUAGGUCGCGGUUACAUGAGGAUCACCCAUGUUCCU [ArgAS 6 #BothOrNeither #OpenEnded]	355 nM
AGAGUUAGACAAAAGUCUAGCUCACCAGAAGGAGCGUCCGAAAGGACAGGUAGGUCGCUGGUGCAUGAGGAUCACCCAUGCUCCU [ArgAS 19 #OpenEnded #AlternativeMS2]	204 nM
ACGCGUCAAGAGUAAAAUCCGUCAAGUGAUACCAGCCACAACGUAGGCCCUUGGCAGCACAUGAGGAUCACCCAUGUAAUAAGGA [Gedigerace]	33.3 nM
AAAAUAUAGACGGCCGCCACUAUAAACAUGAGGAACAUGAGGAUCACCCAUGUAUGAGGAUCACCUAGGACCGGGUCAUAUAAAA [AstrosExyTryB#1]	43 nM
UGGGCUGGGUGCGUAAAGGGCCUGGCGCAUCGAGGACCGGUACGGCCGCCACUCGGCUGUACAUGAGGAUCACCCAUGUCAGGGU [#1 Same State - Tryptophan A Attempt #18 (HarryS)]	192 nM
GUACAUGAGGAUCACCCAUGUAUAGUUGAAGGAGCGACCAGAGGGUCAGGUAGGUCGCAGCACAUGGUGUAAACCCGUGUAUGCC [#1 Exclusion - Arginine A Attempt #22 (Inspired by Pi)]	29.3 nM
UAUCCACAUGAGGAUCACCCAUGUUAGGAAGGAGCGGUGAAUGAACCAGGUAGGUCGCCUAGCUGAGGACUGUCGAUGGAUUCGU [Exclusion - Arginine A (Freestyle 17)]	18.1 nM
UGUACCUAGUCGGCCGCCACUCCAAAAGGAGAGGAUCACCCUCCUAAACGAGUCAAAGACUCGAGGAGGACCGGGACUAGGUACU [Palindromic MS2 #AlternativeMS2 #Palindrome #StaticStem]	30.4 nM
UAUCCACAUGAGGAUCACCCAUGUUAGGAAGGAGCGGUGAAUGAACCAGGUAGGUCGCCUAGGUGAGGAUCAUCUAUGGAUUCGU [Exclusion - Arginine A (Freestyle 11)]	30.2 nM
CCGGAGACCUCGGCCGCCACUCUCCAUGAGGAUCUCCCAUGUAACAUGAGGAUCACCCAUGUGCUGAGGACCGGGAGGUCCUCCU [Same State Tryptophan B GF 20]	13.2 nM
AGUCUUGUAGGAAGGAGCGCAUACUUCACAUGAGGAUCACCCAUGUCAAGACGUGAGUCAGUGCAGGUAGGUCGCCUAACUAAGA [Same State - Arginine B (Freestyle 14)]	17.3 nM
AGAGUUAGACAAAAGUCUAGCUCACCAGAAGGAGCGUCCGAAAGGACAGGUAGGUCGCUGGUACAUGAGCAUCAGCCAUGUUCCU [ArgAS 15 #OpenEnded #AlternativeMS2]	23.7 nM
CCGAACAUGAGGAUCACCCAUGUUAGGGAUACCAGCUCAGACAUGGGCCCUUGGCAGCUCUAUAGCUGACGAAAGUCAGCAUCGG [#15 SameState-TheophyllineA]	35 nM
GGCCCUGCGAGCGCUCGCAGGGCCGCGGAUACCAGCGAGGUCCAUCGCCCUUGGCAGCCGAACAUGAGGAUCACCCAUGUCGGUC [#1 Same State - Theophylline A Attempt #11 (HarryS)]	11.6 nM
UGGUACAUGAGGAUCACCCAUGUUCCAGAUACCAGAUACCCGGUUAUCCCUUGGCAGCUGGUGUUACAUGAGGAUCACCCAUGUU [Exclusion Theophylline A GF16]	30.4 nM
GCUUGGGUGGCACGGCCCUGGCGGUGCGAUACCAGCACGGUAACGUGCCCUUGGCAGCGCACAUGAGGAUCACCCAUGUGGUGCG [#1 Exclusion - Theophylline A Attempt #24 (HarryS)]	15.6 nM
AAUAAACAUGAGGAUCACCCAUGUAUGGAAGGAGCGGUGAAUAAACCAGGUAGGUCGCCAGUGUGAGGGUCAUCUAUGUAAUAAA [Exclusion - Arginine A (Freestyle 2)]	42.7 nM
CUGCCAUGCAGAGAUACCAGUGAGCUCAGAACAUGAGGAUCACCCAUGUAGGUUGCCGAUCACCCUUGGCAGCUCUGCAUGGCAG [*$+%!]	30.8 nM
UACAGCAGUACGGCCGCCACUCUAAGAUUGCGCGUUUAGGCCAUACAUGAGGAUCACCCAUGUCCGAGGACCGGGUACAGGAAUU [theeternabot_sameState_MS2_Trp_B_29]	185 nM

same assay, conditions: Eterna round: R107; input ligand: theophylline 20 uM

Sequence	apparent KD of MS2 coat protein
UGGUAUGUAGGAAGGAGCGCAUACUUCACAUGAGGAUCACCCAUGUCGAGACGUGAGUCAGUGCAGGUAGGUCGCCUAGUUAUGA [Same State - Arginine B (Freestyle 22)]	33.4 nM
CGUAUGUAGACGGCCGCCACUGGAACAAGAGGAUCACCCUUGUACAGGGUGGGACUAUCGAGAGUCAGGACCGGGUCUACAUACA [Tryp B Ex t2]	190 nM
AAGAGUUGACAAAAGUCAGCUCAAACCGAAGGAGCGGGAGAAAUCCCAGGUAGGUCGCGGUUACAUGAGGAUCACCCAUGUUCCU [ArgAS 6 #BothOrNeither #OpenEnded]	376 nM
AGAGUUAGACAAAAGUCUAGCUCACCAGAAGGAGCGUCCGAAAGGACAGGUAGGUCGCUGGUGCAUGAGGAUCACCCAUGCUCCU [ArgAS 19 #OpenEnded #AlternativeMS2]	171 nM
ACGCGUCAAGAGUAAAAUCCGUCAAGUGAUACCAGCCACAACGUAGGCCCUUGGCAGCACAUGAGGAUCACCCAUGUAAUAAGGA [Gedigerace]	53.4 nM
ACCUAAGCCACAGAUACCAGAGUAAUAGGCCAAUUUCAAAACAUGAGGAUCACCCAUGUACUCCCUUGGCAGCUGCGAAUCGAAA [theeternabot_exclusion_MS2_Theo_B_30]	13.6 nM
AAAAUAUAGACGGCCGCCACUAUAAACAUGAGGAACAUGAGGAUCACCCAUGUAUGAGGAUCACCUAGGACCGGGUCAUAUAAAA [AstrosExyTryB#1]	55.4 nM
GGGUAAGAUCCGGAUACCAGCGAACAUGAGGAUCACCCAUGUGAAAUAAGAUAGAAUAAACGCCCUUGGCAGCCGAAAUAGAGUU [Same State Theophylline B GF 3]	81.9 nM
UGGGCUGGGUGCGUAAAGGGCCUGGCGCAUCGAGGACCGGUACGGCCGCCACUCGGCUGUACAUGAGGAUCACCCAUGUCAGGGU [#1 Same State - Tryptophan A Attempt #18 (HarryS)]	552 nM
GUACAUGAGGAUCACCCAUGUAUAGUUGAAGGAGCGACCAGAGGGUCAGGUAGGUCGCAGCACAUGGUGUAAACCCGUGUAUGCC [#1 Exclusion - Arginine A Attempt #22 (Inspired by Pi)]	34.6 nM
UAUCCACAUGAGGAUCACCCAUGUUAGGAAGGAGCGGUGAAUGAACCAGGUAGGUCGCCUAGCUGAGGACUGUCGAUGGAUUCGU [Exclusion - Arginine A (Freestyle 17)]	28.2 nM
UAUUAUCAGUCGGCCGCCACUGUCACAUGAGGAUCACCCAUGUAACUUGGGUUAUAUUUAAUAUACAGGACCGGGACAAAGGCUA [JR_ExcTryptoB_Sub012]	76.6 nM
GCUACAUGAGGAUCACCCAUGUAUGCGAGCCGAGGACCGGUACGGCCGCCACUCGCUUAACAUGAGGAUCACCCAUGUUGCUCGC [SSTA DOUBLE!!! :-D #18]	36.2 nM
ACAUGAGGAUCACCCAUGUGUGUAAGUCCUCGAGGACCGGUACGGCCGCCACUCGAACGAGUGUAACAUACUUGUUACAAGUAUG [SS Trp A s3]	39.9 nM
UGUACCUAGUCGGCCGCCACUCCAAAAGGAGAGGAUCACCCUCCUAAACGAGUCAAAGACUCGAGGAGGACCGGGACUAGGUACU [Palindromic MS2 #AlternativeMS2 #Palindrome #StaticStem]	41.8 nM
UGGUUUGUGAUGGAUACCAGCAGAGAAAACGUUUAUCCUAACAUGAGGAUCACCCAUGUAUGCCCUUGGCAGCUGUUGUGGGCUA [8.S]	37.4 nM
GACCUUGCGGGCGCCCGCAAGGUCGCGGAUACCAGCGAGGUCCAUCGCCCUUGGCAGCCGAACAUGAGGAUCACCCAUGUCGGUU [Same State - Theophylline A Attempt #5 (HarryS)]	12.8 nM
UAUCCACAUGAGGAUCACCCAUGUUAGGAAGGAGCGGUGAAUGAACCAGGUAGGUCGCCUAGGUGAGGAUCAUCUAUGGAUUCGU [Exclusion - Arginine A (Freestyle 11)]	37.3 nM
